Laboratory results: publication PMC9492806

Molecular target: Recombinant human IGF-II R (cation-independent mannose-6-phosphate receptor, CI-MPR) (human) (UniProt P11717)
Experiment: SPR

| Kd [nM] | Substance |
| --- | --- |
| 70.3 | cetuximab M6P-glycoform 9 (cetuximab carrying the M6P tetrasaccharide moiety at the Fc glycosylation site) (antibody) |
| 29.6 | cetuximab M6P-glycoform 10 (cetuximab carrying the bis-phosphorylated heptasaccharide moiety at the Fc glycosylation site) (antibody) |
| 28.6 | trastuzumab M6P-glycoform 3 (trastuzumab carrying the M6P tetrasaccharide moiety at the Fc glycosylation site) (antibody) |
| 700 | trastuzumab M6P-glycoform 6 (trastuzumab carrying the M6P-Man3GlcNAc2 glycan at the Fc glycosylation site) (antibody) |
| 5.4 | trastuzumab M6P-glycoform 7 (trastuzumab carrying the bis-phosphorylated heptasaccharide moiety at the Fc glycosylation site) (antibody) |
